Test results published in patent publication US20180022822A1, “NOVEL ANTI-FIBROBLAST ACTIVATION PROTEIN (FAP) BINDING AGENTS AND USES THEREOF” (Mabimmune Diagnostics AG, priority 2016, published 2018).
Positions count from the first letter of the chain named. Blank lines part the entries; values can stand above or below the molecule they belong to.

Columns and labels:
[1] = tested on: directly coated FAP peptides mixture (cFAP); test: direct ELISA on coated mixture of FAP peptides; format: binding, human; conditions: peptides 378-392, 622-636, 721-736
Experimental: (§1) ELISA assays were performed with varying antibody concentrations to validate the binding of the exemplary antibodies of the present invention to FAP and to be able to determine their half maximal effective concentration (EC50). For the exemplary recombinant human NI-206-18H2, NI-206-20A8, NI-206-6D3, ‘NI-206-14C5, NI-206-34C11, NI-206.82C2, NI-206.59B4, NI-206.22F7, NI-206.27E8, NI-206.12G4 and NI-206.17A6 antibodies, 96-well microplates (Costar, Corning, USA) were coated with FAP, with a mixture of the 3 peptides or with BSA (Sigma-Aldrich, Buchs, Switzerland) diluted to a concentration of 5 μg/ml in carbonate ELISA coating buffer (15 mM Na2CO3, 35 mM NaHCO3, pH 9.4) for the direct ELISA. For the capture ELISA, the microplates were coated with mouse anti-His monoclonal antibody (Clontech) diluted to a concentration of 3 μg/ml in PBS, the plates were then blocked, FAP or BSA were diluted to a concentration of 2 μg/ml in PBS and added to the plates to be captured. The binding efficiency of the antibodies was then tested.
(§2) The EC50 values were estimated by a non-linear regression using GraphPad Prism (San Diego, USA) software. […] The binding of NI-206.12G4 towards sFAP was not tested.

[2] = target: T1, directly coated FAP (FAP) (Homo sapiens, UniProt Q12884); test: direct ELISA on directly coated FAP; format: binding
T1 sequence (Q12884 1-760): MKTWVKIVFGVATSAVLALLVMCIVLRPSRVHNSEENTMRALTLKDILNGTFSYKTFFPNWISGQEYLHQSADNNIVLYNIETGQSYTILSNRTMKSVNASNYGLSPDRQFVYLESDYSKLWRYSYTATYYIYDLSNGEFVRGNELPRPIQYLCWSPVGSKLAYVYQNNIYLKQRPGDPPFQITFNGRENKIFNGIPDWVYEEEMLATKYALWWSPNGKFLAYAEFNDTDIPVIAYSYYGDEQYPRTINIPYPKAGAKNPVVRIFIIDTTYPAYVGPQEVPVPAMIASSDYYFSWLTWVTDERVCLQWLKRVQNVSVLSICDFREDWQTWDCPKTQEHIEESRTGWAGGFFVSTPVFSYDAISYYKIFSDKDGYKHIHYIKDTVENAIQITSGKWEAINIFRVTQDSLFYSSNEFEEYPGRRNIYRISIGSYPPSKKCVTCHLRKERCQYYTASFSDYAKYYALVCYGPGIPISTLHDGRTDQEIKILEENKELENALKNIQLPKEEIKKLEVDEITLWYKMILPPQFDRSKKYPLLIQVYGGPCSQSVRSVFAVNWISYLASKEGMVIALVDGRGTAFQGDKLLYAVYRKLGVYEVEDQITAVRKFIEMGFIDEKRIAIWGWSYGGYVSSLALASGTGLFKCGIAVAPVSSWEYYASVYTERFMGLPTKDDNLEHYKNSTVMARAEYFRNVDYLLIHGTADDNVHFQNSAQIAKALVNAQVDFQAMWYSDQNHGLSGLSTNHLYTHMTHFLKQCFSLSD
Experimental: as §1, §2

captured FAP (sFAP) = target: T2, captured FAP (sFAP) (Homo sapiens, UniProt Q12884); test: capture ELISA, FAP captured via his-tag with coated anti-His antibody; format: binding
T2 sequence (Q12884 1-760): T1 sequence (Q12884 1-760)
Experimental: as §1, §2

BSA = target: T3, BSA (Bos taurus, UniProt P02769); test: ELISA control binding to BSA; parameters: species or system bovine
T3 construct: purchased Sigma-Aldrich
Experimental: as §1

[3] = target: T4, transmembrane human FAP on FAP expressing HEK293 cells (Homo sapiens, UniProt Q12884); test: flow cytometry of Cy5 labelled antibodies on FAP-HEK293 cells in pH adjusted PBS; format: cell-based; conditions: pH 7.4 to 6.2; 0.1-100 nM Cy5 labelled antibody
T4 construct: HEK293 cells were transduced with retrovirus encoding full length human FAP cDNA; host or cells: HEK293 (retroviral transduction, G418 selected)
T4 sequence (Q12884 1-760): T1 sequence (Q12884 1-760)
Experimental: To evaluate the binding of NI-206.82C2, NI-206.59B4, NI-206.27E8, NI-206.12G4, NI-206.18H2 and NI-206.6D3 to transmembrane human FAP, an FAP expressing HEK293 cell line was received from the National Institutes of Health, Bethesda, Md. The generation of this FAP expressing HEK293 cells is described in: J. Exp. Med. 2013 Vol. 210 No. 6 1125-1135. HEK293 cells were transduced with retrovirus encoding full length human FAP cDNA. Cloning was performed using Fast Cloning Pack and FastDigest restriction enzymes (both from Fermentas). Transient retroviral supernatants were generated by transfecting 293GP cells with the FAP plasmid using Lipofectamine 2000 (Invitrogen). Retroviral supernatants were collected at 48 h after transfection and centrifuged onto Retronectin-coated (10 μg/ml; Takara), non-tissue culture-treated 6-well plates at 2,000 G for 2 h at 32° C. These retroviral supernatants where then used to transduce HEK293 cells overnight. Transduced FAP-HEK293 cells were selected with 1 mg/ml G418 (CellGro).
500′000 FAP-HEK293 cells were incubated for 1 hr at 4° C. either with Cy5 labelled NI-206.82C2, NI-206.59B4, NI-206.27E8, NI-206.12G4, NI-206.18H2 or NI-206.6D3 or with Cy5 labelled 43A11 at four different antibody concentrations (0.1, 1, 10, and 100 nM) in seven different pH-adjusted PBS buffers (pH 7.4, 6.8, 6.6, 6.5, 6.4, 6.3 and 6.2). PBS buffers were adjusted to using MES monohydrate (Sigma Aldrich). Following incubation, cells were washed 3 times with 200 uL in matched pH-adjusted PBS, spun at 400G for 4 min, and resuspended in 200 μL of pH adjusted buffer.
To analyze antibody binding, fluorescent activated flow cytometry was performed using a BD Fortesa device for forward scatter, side scatter, and the mean fluorescent intensity (MFI) of the Cy5 channel was recorded using a […] laser excitation and 600/20 filter. Viable cells were gated by forward and side scatter, and singlets/doublet exclusion, and the MFI for Cy5 was quantified using FlowJo software Version 10.1.

[4] = ELISA, varying antibody concentrations

T3 sequence (P02769 25-607): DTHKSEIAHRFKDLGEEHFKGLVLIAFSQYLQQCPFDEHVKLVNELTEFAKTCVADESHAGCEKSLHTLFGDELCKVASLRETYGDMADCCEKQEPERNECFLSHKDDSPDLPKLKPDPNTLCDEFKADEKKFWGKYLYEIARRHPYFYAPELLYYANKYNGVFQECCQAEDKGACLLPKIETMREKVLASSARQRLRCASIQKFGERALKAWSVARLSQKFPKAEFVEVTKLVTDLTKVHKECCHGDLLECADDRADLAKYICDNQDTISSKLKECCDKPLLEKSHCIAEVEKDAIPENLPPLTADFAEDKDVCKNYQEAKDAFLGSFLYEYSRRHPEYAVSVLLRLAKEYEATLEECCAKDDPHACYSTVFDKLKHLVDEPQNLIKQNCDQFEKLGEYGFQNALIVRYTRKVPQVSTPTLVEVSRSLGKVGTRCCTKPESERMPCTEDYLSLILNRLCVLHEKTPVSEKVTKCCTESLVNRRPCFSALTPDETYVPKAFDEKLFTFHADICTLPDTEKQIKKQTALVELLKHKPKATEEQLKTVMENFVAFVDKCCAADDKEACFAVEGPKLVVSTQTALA

B3: NI-206.12G4: human-derived recombinant anti-FAP antibody; VH SEQ ID NO: 20, VL SEQ ID NO: 22 (antibody, listed as Homo sapiens, V domains shown)
VH: EVQLVESGGGLVKPGGSLRLSCAASGFTFSDYYMSWIRQAPGKGLEWISYISSGSSYTNYADSVKGRFTISRDNAKKSVYLEVNGLTVEDTAVYYCARVRYGDREMATIGGFDFWGQGTLVTVSS
VL: SYELTQPPSVSVSPGQTARITCSGDALPKQYAYWYQQSPGQAPVLVIYKDSERPSGIPERFSGSSSGTTVTLTISGVQAEDEADYYCQSADSGGTSRIFGGGTKLTVL
EC50 to the directly coated FAP peptides mixture (cFAP) [1]: did not show any binding | paratope-specific avidity (ΔMFI) under acidic conditions vs. at pH 7.4 [3]: decreases

B4: NI-206.22F7: human-derived recombinant anti-FAP antibody; VH SEQ ID NO: 12, VL SEQ ID NO: 14 (antibody, listed as Homo sapiens, V domains shown)
VH: EVQLVETGGGVVQPGRSLRLSCAASGFSFSTHGMYWVRQPPGKGLEWVAVISYDGSDKKYADSVKGRFTISRDNSKNTVYLEMSSVRAEDTALYYCFCRRDAFDLWGQGTMVTVSS
VL: SYVLTQPPSVSVSPGQTARITCSGDALPKKYAYWYQQKSGQAPVLVIYEDTKRPSGIPERFSGSSSGTMATLTISGAQVEDEADYYCYSTDSSGNYWVFGGGTEVTVL
EC50 to the directly coated FAP (FAP) ([2]; direct ELISA, non-linear regression, GraphPad Prism): did not show any binding | EC50 to the captured FAP (sFAP) (captured FAP (sFAP); capture ELISA, non-linear regression, GraphPad Prism): did not show any binding

B5: NI-206.17A6: human-derived recombinant anti-FAP antibody; VH SEQ ID NO: 24, VK SEQ ID NO: 26 (antibody, listed as Homo sapiens, V domains shown)
VH: QVQLQESGPGLVRSTETLSLTCLVSGDSINSHYWSWLRQSPGRGLEWIGYIYYTGPTNYNPSLKSRVSISLGTSKDQFSLKLSSVTAADTARYYCARNKVFWRGSDFYYYMDVWGKGTTVTVSS
VL: EIVLTQSPGTLSLSLGERATLSCRASQSLANNYLAWYQQKPGQAPRLLMYDASTRATGIPDRFSGSGSGTDFTLTISRLEPEDFAVYYCQQFVTSHHMYIFGQGTKVEIK
EC50 to the directly coated FAP peptides mixture (cFAP) [1]: did not show any binding

Now from value to molecule, other results behind:

EC50 to the directly coated FAP peptides mixture (cFAP) [1]: did not show any binding | binding to BSA (BSA): does not bind | paratope-specific avidity (ΔMFI) under acidic conditions vs. at pH 7.4 [3]: increased
B1: NI-206.59B4: human-derived recombinant anti-FAP antibody; VH SEQ ID NO: 8, VL SEQ ID NO: 10 (antibody, listed as Homo sapiens, V domains shown)
VH: QVQLVQSGAEVKKPGASVKVSCKTSGYTFTDYYIHWVRQAPGQGLEWMGWINPNRGGTNYAQKFQGRVTMTRDTSIATAYMELSRLRSDDTAVYYCATASLKIAAVGTFDCWGQGTLVTVSS
VL: SYELTQPPSVSVSPGQTARITCSGDALSKQYAFWFQQKPGQAPILVIYQDTKRPSGIPGRFSGSSSGTTVTLTISGAQADDEADYYCQSADSSGTYVFGTGTKVTVL
binding to the directly coated FAP [2, 4]: specifically, strongly and similarly bind | binding to the captured FAP (captured FAP (sFAP); [4]): specifically, strongly and similarly bind

EC50 to the directly coated FAP peptides mixture (cFAP) [1]: did not show any binding | paratope-specific avidity (ΔMFI) under acidic conditions vs. at pH 7.4 [3]: increased
B2: NI-206.27E8: human-derived recombinant anti-FAP antibody; VH SEQ ID NO: 16, VL SEQ ID NO: 18 (antibody, listed as Homo sapiens, V domains shown)
VH: EVQLVESGGGLVEPGGSLRLSCAASGFTFSDAWMNWVRQAPGKGLEWVGRIKTKSDGGTTDYAAPVRGRFSISRDDSKNTLFLEMNSLKTEDTAIYYCFITVIVVSSESPLDHWGQGTLVTVSS
VL: B3 VL with A26E, S38K, S51R, E52Q, D91Y, G93I, G94N, S96Y, R97V
